± gives the uncertainty stated by the source.

A short description of this data set: amyloid nucleation score (Sup35N fusion, yeast selection) (log enrichment); library NNK3; higher = more nucleation; inactive = no reads after selection. In short, it runs like this: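 Peptides of 20 random codons fused to Sup35N were expressed in psi-negative yeast, induced 24 hours with 100 μM copper sulfate, then grown 7 days at 30°C on medium lacking adenine and uracil. Input and output plasmid inserts were Illumina-sequenced. Nucleation score is the DiMSum log enrichment of output over input reads, centred on the mode score of non-aggregating sequences, excluding sequences with under 100 input reads. Random libraries had three technical output replicates.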
In the case of FVPRPISNSAGIP, the amyloid nucleation score result is “inactive”. Under FVSILLYYMPVNCLNRKTIN stands “inactive”; under FVTAAN, “inactive”; under FVTQFVEN, “inactive”.

The substance FVYTHIWGVGLGKML showed an amyloid nucleation score of 0.632 ± 0.14.

Regarding FWFSTELVDDGAGQT, the amyloid nucleation score entry is “inactive”. In the case of FWHILLEVRLAVWSQMRDMG, the amyloid nucleation score result was “inactive”.

Turning to FWIVSVTYFNCLVDWGEGCM, the amyloid nucleation score turned out to be 2.05 ± 0.091. The value for FWKFRGQTWYCFAGTDGISH was -0.002 ± 0.75; that for FWNVLWATRLYFFSFYDITS was “inactive”. With FWSHLTLTSSSFKFGTVSR, the amyloid nucleation score entry is “inactive”. Under FWTVHLVT stands “inactive”. Under FWVNVCVFMGRVW stands “inactive”; under FWWLEI, “inactive”. FYCGFAMGFILCCQNYTFVT yielded an amyloid nucleation score of 2.63 ± 0.076. Under FYCGIWAYVEDCC stands 2.53 ± 0.057; under FYCIVFQYGSLDLARH, 2.69 ± 0.064. For the substance FYCRSGVGKCYGWVTKVMRE, the amyloid nucleation score result was “inactive”.

In the case of FYFGTG, the amyloid nucleation score entry was “inactive”. The value for FYGFGGISIRSGVVGIVDMK was “inactive”; that for FYISREALLSIASRTLRARQ was “inactive”.

For the substance FYMDWTGHLQKFNP, the amyloid nucleation score entry was “inactive”.

On to FYNDWRVFRVGCSLGRDQSN, for which the amyloid nucleation score entry is “inactive”. Under FYNFSTCVTRGWYVFMRC stands “inactive”. Consider FYPRMYTISQMLDAGQDDAA, for which the amyloid nucleation score entry was “inactive”.

With FYQNLFRILMHNVHAVCPCY, the amyloid nucleation score result was “inactive”.

Consider FYWGACSIHLFKL, for which the amyloid nucleation score result was “inactive”. Under FYYSVHFLF stands “inactive”. Under FYYTKDPRIGKNNYLCV stands “inactive”; under FYYYLCYDIVAISVLMNLPY, “inactive”; under GADMKTRRSARGLMWTMGSS, “inactive”.

In the case of GAHANM, the amyloid nucleation score entry is “inactive”. The value for GAKIPELSLLMVTPINARSF was “inactive”. For GALMCPPRLVS, the amyloid nucleation score result was “inactive”. Under GASCLCWNYRDRLRTEVRYY stands “inactive”. GATFVRILSRLIRLSFI: the amyloid nucleation score result was “inactive”.

Consider GCINKDDYKSDCWSFYKTE, for which the amyloid nucleation score entry is “inactive”. On to GCIYK, for which the amyloid nucleation score entry was “inactive”. The value for GCLECL was “inactive”; that for GCLYVW was “inactive”. GCNDSSARLS: the amyloid nucleation score result was “inactive”. Under GCNNVH stands “inactive”; under GCSRHYKFS, “inactive”; under GDERGLLMYVPG, “inactive”. Under GDITSEYV stands “inactive”.

On to GDMQMW, for which the amyloid nucleation score entry is “inactive”.

Regarding GDNSLTYMSAM, the amyloid nucleation score result was “inactive”. Under GEKCGRSRI stands “inactive”; under GFAISQAYALSTPFVCISAI, “inactive”; under GFEDSSIT, “inactive”. The value for GFFLLNSYSNCMFCKLHTGT was 1.97 ± 0.082. GFGFP: the amyloid nucleation score entry was “inactive”. The value for GFGYCVWQESGNLRGCRWLW was 0.5 ± 0.39; that for GFIMEYDEY was “inactive”; that for GFLMGSE was “inactive”. For the substance GFMLWTHKKLARPEATAV, the amyloid nucleation score entry was “inactive”.

On to GFVMMFNR, for which the amyloid nucleation score result was “inactive”. Under GFYWYTVFAVSLDDCLSKSS stands “inactive”; under GGCCAYCSLDLVWMFDDRSV, 2.16 ± 0.081; under GGFCKWRKCGVYKMTGHCPE, “inactive”. Under GGKLSRNI stands “inactive”; under GGKVSERRYVDLCRLPSVAP, “inactive”; under GGLCLLAVLWKFLMSALVIR, “inactive”. For the substance GGLDFSSLSLMWYTQSSHKV, the amyloid nucleation score result was “inactive”. For the substance GGLEVMSLITT, the amyloid nucleation score entry was “inactive”. Under GGLTSYDQ stands “inactive”; under GGNGKAWHVGTVIMCRKLRV, 2.5 ± 0.078; under GGPSYSLSLWLSKVSCLQGG, 0.63 ± 0.34. Under GGRTM stands “inactive”; under GGSCLSNPVGKYGILWWMLS, “inactive”; under GGTIFNGNWVSTLSHPQRRA, 0.47 ± 0.25. On to GGVTYRQDLTRYLSG, for which the amyloid nucleation score result was “inactive”. GHGLGAAYCRIVLKRETLTN: the amyloid nucleation score entry is “inactive”.

Turning to GHIYCYSVKE, the amyloid nucleation score entry is “inactive”.

In the case of GHSEYLA, the amyloid nucleation score result was “inactive”.

Turning to GHTANLTYALFMGDFSRAGI, the amyloid nucleation score result was “inactive”. The value for GHVSHYVVVLHLTSIGSCGL was 0.696 ± 0.23; that for GHWSEKSDGTNKSYVVRSGM was “inactive”. For the substance GIAGCKSRSCLLPYCNWVSV, the amyloid nucleation score result is “inactive”. Under GIANRAFITDGGWGLFISTY stands “inactive”. Under GICHTFDAGTVFFLFGSWFI stands “inactive”; under GIGIFSCLKSSVLCLIYLSR, -0.113 ± 0.31. For the substance GIHHFF, the amyloid nucleation score entry is “inactive”. For GIIHDVMDTTNGKIVSS, the amyloid nucleation score entry was “inactive”. The value for GIKVLTTCGHKKFVGINSVM was “inactive”; that for GILFNK was “inactive”; that for GIRCSLVY was “inactive”. Under GIRLIECS stands “inactive”; under GKFVRLPPISRISHLWNCEL, “inactive”.

In turn, GKPWCNYSDYFYCTLLVDCK showed an amyloid nucleation score of -0.246 ± 0.82. Under GKQIRSNR stands “inactive”; under GKVVVN, “inactive”; under GLCWRMLTFLWSFVSMENNG, -0.565 ± 1.1. Under GLFCPVYS stands “inactive”; under GLFMRFTRWCRGKHVTMVP, “inactive”.

With GLFRGYGVTLVRRLWSRIMY, the amyloid nucleation score result was “inactive”. GLGYFPIWASLRTKLVLILG: the amyloid nucleation score entry is “inactive”. Under GLHLIFFSYHRWHVTLK stands “inactive”; under GLLANWYVQH, “inactive”; under GLLSPRTGCD, “inactive”.
